Measured values taken from article PMC7674511.

Biological target: Pro-LC3B, Q9GZQ8
Assay: fluorescence anisotropy
Settings: chain shown with the change; FITC-labeled peptide 1 μM; read at the highest Pro-LC3B concentration plotted (about 50 μM); parent: est. 0.071; read off a plot

VHDRNANSAVMAGTFNLPSD [BAG6 LIR1 peptide (residues 124-143), P46379-2 Y132A; V135A]
response: -0.002
